# Laboratory results as given in patent publication US20160272683A1 (Novo Nordisk, published 2016).
# Numbered stars: 1 amine (or outer) side, 2 acyl side, 3 side chain; on linkers, the order of the positions; unused ones are H or OH. * marks the point of attachment. C20 diacid = O=C(O)CCCCCCCCCCCCCCCCCCC(=O)*; C18 diacid = O=C(O)CCCCCCCCCCCCCCCCC(=O)*; γGlu = O=C(O)[C@H](CCC(=O)[*:2])N[*:1]
# T1: human amylin 3(a) receptor (human calcitonin receptor co-expressed with RAMP-3) (human, UniProt P30988 25-474; O60896 24-148, limits assumed)
# T1 sequence (looked up) 1: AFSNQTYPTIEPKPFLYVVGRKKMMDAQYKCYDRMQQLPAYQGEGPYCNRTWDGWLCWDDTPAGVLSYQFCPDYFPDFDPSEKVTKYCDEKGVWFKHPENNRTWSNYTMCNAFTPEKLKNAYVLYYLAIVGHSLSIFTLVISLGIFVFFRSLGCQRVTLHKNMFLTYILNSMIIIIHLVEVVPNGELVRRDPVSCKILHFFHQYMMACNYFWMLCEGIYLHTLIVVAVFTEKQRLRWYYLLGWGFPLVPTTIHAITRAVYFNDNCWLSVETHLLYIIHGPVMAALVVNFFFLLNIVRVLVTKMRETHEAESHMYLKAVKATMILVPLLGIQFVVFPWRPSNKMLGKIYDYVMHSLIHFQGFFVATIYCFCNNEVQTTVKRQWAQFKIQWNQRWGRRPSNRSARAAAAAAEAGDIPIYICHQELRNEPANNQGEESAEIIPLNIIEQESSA
# T1 sequence (looked up) 2: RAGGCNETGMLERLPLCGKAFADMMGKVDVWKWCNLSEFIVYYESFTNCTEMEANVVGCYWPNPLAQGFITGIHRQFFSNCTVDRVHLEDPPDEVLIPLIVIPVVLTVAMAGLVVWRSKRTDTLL
# T2: human calcitonin receptor (human, UniProt P30988 25-474)
# T2 sequence (looked up): T1 sequence (looked up) 1
# B1: [N-terminal(C20 diacid-gGlu), des1, 12H, 25H, 30S, 31G]mimylin (peptide)
# peptide: {C20 diacid-γGlu}-ASELSTAALGHLSAELHELATLPHTETGSGSP-NH2
# SMILES: CC(C)C[C@H](NC(=O)[C@H](C)NC(=O)[C@H](C)NC(=O)[C@@H](NC(=O)[C@H](CO)NC(=O)[C@H](CC(C)C)NC(=O)[C@H](CCC(=O)O)NC(=O)[C@H](CO)NC(=O)[C@H](C)NC(=O)CC[C@H](NC(=O)CCCCCCCCCCCCCCCCCCC(=O)O)C(=O)O)[C@@H](C)O)C(=O)NCC(=O)N[C@@H](Cc1c[nH]cn1)C(=O)N[C@@H](CC(C)C)C(=O)N[C@@H](CO)C(=O)N[C@@H](C)C(=O)N[C@@H](CCC(=O)O)C(=O)N[C@@H](CC(C)C)C(=O)N[C@@H](Cc1c[nH]cn1)C(=O)N[C@@H](CCC(=O)O)C(=O)N[C@@H](CC(C)C)C(=O)N[C@@H](C)C(=O)N[C@H](C(=O)N[C@@H](CC(C)C)C(=O)N1CCC[C@H]1C(=O)N[C@@H](Cc1c[nH]cn1)C(=O)N[C@H](C(=O)N[C@@H](CCC(=O)O)C(=O)N[C@H](C(=O)NCC(=O)N[C@@H](CO)C(=O)NCC(=O)N[C@@H](CO)C(=O)N1CCC[C@H]1C(N)=O)[C@@H](C)O)[C@@H](C)O)[C@@H](C)O
# B2: [N-terminal(C18 diacid), 5I]mimylin (peptide)
# peptide: {C18 diacid}-EASEISTAALGRLSAELHELATLPRTETGPESP-NH2
# SMILES: CC[C@H](C)[C@H](NC(=O)[C@H](CCC(=O)O)NC(=O)[C@H](CO)NC(=O)[C@H](C)NC(=O)[C@H](CCC(=O)O)NC(=O)CCCCCCCCCCCCCCCCC(=O)O)C(=O)N[C@@H](CO)C(=O)N[C@H](C(=O)N[C@@H](C)C(=O)N[C@@H](C)C(=O)N[C@@H](CC(C)C)C(=O)NCC(=O)N[C@@H](CCCNC(=N)N)C(=O)N[C@@H](CC(C)C)C(=O)N[C@@H](CO)C(=O)N[C@@H](C)C(=O)N[C@@H](CCC(=O)O)C(=O)N[C@@H](CC(C)C)C(=O)N[C@@H](Cc1c[nH]cn1)C(=O)N[C@@H](CCC(=O)O)C(=O)N[C@@H](CC(C)C)C(=O)N[C@@H](C)C(=O)N[C@H](C(=O)N[C@@H](CC(C)C)C(=O)N1CCC[C@H]1C(=O)N[C@@H](CCCNC(=N)N)C(=O)N[C@H](C(=O)N[C@@H](CCC(=O)O)C(=O)N[C@H](C(=O)NCC(=O)N1CCC[C@H]1C(=O)N[C@@H](CCC(=O)O)C(=O)N[C@@H](CO)C(=O)N1CCC[C@H]1C(N)=O)[C@@H](C)O)[C@@H](C)O)[C@@H](C)O)[C@@H](C)O
# B3: [N-terminal(C18 diacid-gGlu), des1, 6T, 9V, 30S, 31G]mimylin (peptide)
# peptide: {C18 diacid-γGlu}-ASELTTAVLGRLSAELHELATLPRTETGSGSP-NH2
# SMILES: CC(C)C[C@H](NC(=O)[C@H](CCC(=O)O)NC(=O)[C@H](Cc1c[nH]cn1)NC(=O)[C@H](CC(C)C)NC(=O)[C@H](CCC(=O)O)NC(=O)[C@H](C)NC(=O)[C@H](CO)NC(=O)[C@H](CC(C)C)NC(=O)[C@H](CCCNC(=N)N)NC(=O)CNC(=O)[C@H](CC(C)C)NC(=O)[C@@H](NC(=O)[C@H](C)NC(=O)[C@@H](NC(=O)[C@@H](NC(=O)[C@H](CC(C)C)NC(=O)[C@H](CCC(=O)O)NC(=O)[C@H](CO)NC(=O)[C@H](C)NC(=O)CC[C@H](NC(=O)CCCCCCCCCCCCCCCCC(=O)O)C(=O)O)[C@@H](C)O)[C@@H](C)O)C(C)C)C(=O)N[C@@H](C)C(=O)N[C@H](C(=O)N[C@@H](CC(C)C)C(=O)N1CCC[C@H]1C(=O)N[C@@H](CCCNC(=N)N)C(=O)N[C@H](C(=O)N[C@@H](CCC(=O)O)C(=O)N[C@H](C(=O)NCC(=O)N[C@@H](CO)C(=O)NCC(=O)N[C@@H](CO)C(=O)N1CCC[C@H]1C(N)=O)[C@@H](C)O)[C@@H](C)O)[C@@H](C)O
# B4: [N-terminal(C18 diacid-gGlu), des1, 5V, 9V, 30S, 31G]mimylin (peptide)
# peptide: {C18 diacid-γGlu}-ASEVSTAVLGRLSAELHELATLPRTETGSGSP-NH2
# B5: [N-terminal(C18 diacid-gGlu), des1, 4Q, 16Q, 30S, 31G]mimylin (peptide)
# peptide: {C18 diacid-γGlu}-ASQLSTAALGRLSAQLHELATLPRTETGSGSP-NH2
# SMILES: CC(C)C[C@H](NC(=O)[C@H](C)NC(=O)[C@H](C)NC(=O)[C@@H](NC(=O)[C@H](CO)NC(=O)[C@H](CC(C)C)NC(=O)[C@H](CCC(N)=O)NC(=O)[C@H](CO)NC(=O)[C@H](C)NC(=O)CC[C@H](NC(=O)CCCCCCCCCCCCCCCCC(=O)O)C(=O)O)[C@@H](C)O)C(=O)NCC(=O)N[C@@H](CCCNC(=N)N)C(=O)N[C@@H](CC(C)C)C(=O)N[C@@H](CO)C(=O)N[C@@H](C)C(=O)N[C@@H](CCC(N)=O)C(=O)N[C@@H](CC(C)C)C(=O)N[C@@H](Cc1c[nH]cn1)C(=O)N[C@@H](CCC(=O)O)C(=O)N[C@@H](CC(C)C)C(=O)N[C@@H](C)C(=O)N[C@H](C(=O)N[C@@H](CC(C)C)C(=O)N1CCC[C@H]1C(=O)N[C@@H](CCCNC(=N)N)C(=O)N[C@H](C(=O)N[C@@H](CCC(=O)O)C(=O)N[C@H](C(=O)NCC(=O)N[C@@H](CO)C(=O)NCC(=O)N[C@@H](CO)C(=O)N1CCC[C@H]1C(N)=O)[C@@H](C)O)[C@@H](C)O)[C@@H](C)O
# B6: [N-terminal(C20 diacid-gGlu), des1, 23Y, 30S, 31G, 33Y, C-terminal(-)]mimylin (peptide)
# peptide: {C20 diacid-γGlu}-ASELSTAALGRLSAELHELATYPRTETGSGSY-OH
# B7: [N-terminal(C20 diacid-gGlu), des1, 23Y, 30S, 31G, 34G, C-terminal(-)]mimylin (peptide)
# peptide: {C20 diacid-γGlu}-ASELSTAALGRLSAELHELATYPRTETGSGSPG-OH
# SMILES: CC(C)C[C@H](NC(=O)[C@H](C)NC(=O)[C@H](C)NC(=O)[C@@H](NC(=O)[C@H](CO)NC(=O)[C@H](CC(C)C)NC(=O)[C@H](CCC(=O)O)NC(=O)[C@H](CO)NC(=O)[C@H](C)NC(=O)CC[C@H](NC(=O)CCCCCCCCCCCCCCCCCCC(=O)O)C(=O)O)[C@@H](C)O)C(=O)NCC(=O)N[C@@H](CCCNC(=N)N)C(=O)N[C@@H](CC(C)C)C(=O)N[C@@H](CO)C(=O)N[C@@H](C)C(=O)N[C@@H](CCC(=O)O)C(=O)N[C@@H](CC(C)C)C(=O)N[C@@H](Cc1c[nH]cn1)C(=O)N[C@@H](CCC(=O)O)C(=O)N[C@@H](CC(C)C)C(=O)N[C@@H](C)C(=O)N[C@H](C(=O)N[C@@H](Cc1ccc(O)cc1)C(=O)N1CCC[C@H]1C(=O)N[C@@H](CCCNC(=N)N)C(=O)N[C@H](C(=O)N[C@@H](CCC(=O)O)C(=O)N[C@H](C(=O)NCC(=O)N[C@@H](CO)C(=O)NCC(=O)N[C@@H](CO)C(=O)N1CCC[C@H]1C(=O)NCC(=O)O)[C@@H](C)O)[C@@H](C)O)[C@@H](C)O
# B8: [N-terminal(C20 diacid-gGlu), des1, 23Y, 30S, 31G, 34K, C-terminal(-)]mimylin (peptide)
# peptide: {C20 diacid-γGlu}-ASELSTAALGRLSAELHELATYPRTETGSGSPK-OH
# SMILES: CC(C)C[C@H](NC(=O)[C@H](C)NC(=O)[C@H](C)NC(=O)[C@@H](NC(=O)[C@H](CO)NC(=O)[C@H](CC(C)C)NC(=O)[C@H](CCC(=O)O)NC(=O)[C@H](CO)NC(=O)[C@H](C)NC(=O)CC[C@H](NC(=O)CCCCCCCCCCCCCCCCCCC(=O)O)C(=O)O)[C@@H](C)O)C(=O)NCC(=O)N[C@@H](CCCNC(=N)N)C(=O)N[C@@H](CC(C)C)C(=O)N[C@@H](CO)C(=O)N[C@@H](C)C(=O)N[C@@H](CCC(=O)O)C(=O)N[C@@H](CC(C)C)C(=O)N[C@@H](Cc1c[nH]cn1)C(=O)N[C@@H](CCC(=O)O)C(=O)N[C@@H](CC(C)C)C(=O)N[C@@H](C)C(=O)N[C@H](C(=O)N[C@@H](Cc1ccc(O)cc1)C(=O)N1CCC[C@H]1C(=O)N[C@@H](CCCNC(=N)N)C(=O)N[C@H](C(=O)N[C@@H](CCC(=O)O)C(=O)N[C@H](C(=O)NCC(=O)N[C@@H](CO)C(=O)NCC(=O)N[C@@H](CO)C(=O)N1CCC[C@H]1C(=O)N[C@@H](CCCCN)C(=O)O)[C@@H](C)O)[C@@H](C)O)[C@@H](C)O
# B9: [N-terminal(C20 diacid-gGlu), des1, 9S, 23Y, 30S, 31G, 33Y]mimylin (peptide)
# peptide: {C20 diacid-γGlu}-ASELSTASLGRLSAELHELATYPRTETGSGSY-NH2
# SMILES: CC(C)C[C@H](NC(=O)[C@H](CO)NC(=O)[C@H](C)NC(=O)[C@@H](NC(=O)[C@H](CO)NC(=O)[C@H](CC(C)C)NC(=O)[C@H](CCC(=O)O)NC(=O)[C@H](CO)NC(=O)[C@H](C)NC(=O)CC[C@H](NC(=O)CCCCCCCCCCCCCCCCCCC(=O)O)C(=O)O)[C@@H](C)O)C(=O)NCC(=O)N[C@@H](CCCNC(=N)N)C(=O)N[C@@H](CC(C)C)C(=O)N[C@@H](CO)C(=O)N[C@@H](C)C(=O)N[C@@H](CCC(=O)O)C(=O)N[C@@H](CC(C)C)C(=O)N[C@@H](Cc1c[nH]cn1)C(=O)N[C@@H](CCC(=O)O)C(=O)N[C@@H](CC(C)C)C(=O)N[C@@H](C)C(=O)N[C@H](C(=O)N[C@@H](Cc1ccc(O)cc1)C(=O)N1CCC[C@H]1C(=O)N[C@@H](CCCNC(=N)N)C(=O)N[C@H](C(=O)N[C@@H](CCC(=O)O)C(=O)N[C@H](C(=O)NCC(=O)N[C@@H](CO)C(=O)NCC(=O)N[C@@H](CO)C(=O)N[C@@H](Cc1ccc(O)cc1)C(N)=O)[C@@H](C)O)[C@@H](C)O)[C@@H](C)O
# Target: T1, human amylin 3(a) receptor (human …)
# Experiment: cell-based or functional assay
row,Binder,hAmylin-R funct. EC50 (pM)
1,B1,26 pM
2,B2,7 pM
3,B3,33 pM
4,B4,32 pM
5,B5,9 pM
6,B6,461 pM
7,B7,187 pM
8,B8,239 pM
9,B9,37 pM

# Target: T2, human calcitonin receptor
# Experiment: cell-based or functional assay
row,Binder,hCTR funct. EC50 (pM)
1,B1,12 pM
2,B2,7 pM
3,B3,28 pM
4,B4,13 pM
5,B5,13 pM
6,B6,127 pM
7,B7,64 pM
8,B8,88 pM
9,B9,41 pM
